Patent publication US20200317768A1 (published 2020)
Substitutions are numbered along the chain they refer to.

T1: human FcγRIIaH extracellular domain, His-tagged (human, UniProt P12318 34-217)
T1 construct: also called human FcγRIIa (type H); FcgRIIaH; not shown: C-terminal His-tag
T1 sequence: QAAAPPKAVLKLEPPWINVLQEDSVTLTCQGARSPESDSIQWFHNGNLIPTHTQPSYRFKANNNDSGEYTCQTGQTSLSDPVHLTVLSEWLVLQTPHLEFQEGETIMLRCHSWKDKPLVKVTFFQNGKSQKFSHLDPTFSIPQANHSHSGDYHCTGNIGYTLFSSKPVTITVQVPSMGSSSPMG

T2: cynomolgus monkey FcγRIIa1 extracellular domain, His-tagged (cynomolgus monkey)
T2 construct: also called cyno FcγRIIa1; cynoFcgRIIa1; not shown: C-terminal His-tag
T2 chain: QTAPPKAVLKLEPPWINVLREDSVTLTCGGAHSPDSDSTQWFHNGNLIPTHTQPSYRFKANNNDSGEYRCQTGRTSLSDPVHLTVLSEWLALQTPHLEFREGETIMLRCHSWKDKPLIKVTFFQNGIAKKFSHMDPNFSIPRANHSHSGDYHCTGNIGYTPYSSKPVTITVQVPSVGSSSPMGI

T3: cynomolgus monkey FcγRIIb extracellular domain, His-tagged (cynomolgus monkey)
T3 construct: also called cyno FcγRIIb; cynoFcγRIIb; not shown: C-terminal His-tag
T3 chain: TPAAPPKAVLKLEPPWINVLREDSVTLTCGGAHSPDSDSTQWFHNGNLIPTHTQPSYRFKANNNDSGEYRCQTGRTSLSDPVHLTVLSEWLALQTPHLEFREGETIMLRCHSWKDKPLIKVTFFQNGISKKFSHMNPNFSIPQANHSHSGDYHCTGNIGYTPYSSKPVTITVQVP

T4: human FcγRIIaR extracellular domain, His-tagged (human, UniProt P12318 34-217)
T4 construct: also called human FcγRIIa (type R); FcgRIIaR; not shown: C-terminal His-tag
T4 chain: T1 sequence with H134R

T5: human FcγRIIb extracellular domain, His-tagged (human, UniProt P31994 43-217)
T5 construct: also called FcgRIIb (human); not shown: C-terminal His-tag
T5 sequence: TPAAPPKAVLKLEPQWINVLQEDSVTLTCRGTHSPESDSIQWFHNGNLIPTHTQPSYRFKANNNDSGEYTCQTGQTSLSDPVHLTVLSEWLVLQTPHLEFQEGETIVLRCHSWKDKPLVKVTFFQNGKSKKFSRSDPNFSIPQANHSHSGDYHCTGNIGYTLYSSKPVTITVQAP

T6: cynomolgus monkey FcγRIIa3 extracellular domain, His-tagged (cynomolgus monkey)
T6 construct: also called cyno FcγRIIa3; cynoFcgRIIa3; not shown: C-terminal His-tag
T6 chain: T2 chain with P95T, T121A, A128S, H133P, D135N

T7: cynomolgus monkey FcγRIIIaS extracellular domain, His-tagged (cynomolgus monkey, UniProt Q8SPW2 21-206 at identity 1.00))
T7 construct: also called cyno FcγRIIIaS; cynoFcγRIIIaS; not shown: C-terminal His-tag
T7 chain: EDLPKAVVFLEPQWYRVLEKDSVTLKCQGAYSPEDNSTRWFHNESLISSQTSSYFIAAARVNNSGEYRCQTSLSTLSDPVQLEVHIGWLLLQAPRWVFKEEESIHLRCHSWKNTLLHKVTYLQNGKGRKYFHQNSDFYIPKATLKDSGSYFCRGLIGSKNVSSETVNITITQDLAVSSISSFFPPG

T8: cynomolgus monkey FcγRIIa2 extracellular domain, His-tagged (cynomolgus monkey)
T8 construct: also called cyno FcγRIIa2; cynoFcgRIIa2; not shown: C-terminal His-tag
T8 chain: T2 chain with P95T, T121A, I127K, A128S, K130N, D135N, R142Q

B1: M103205H795-MY461/M103202L889-SK1 (antibody, human IgG1, kappa)
heavy: QVTLKESGPVLVKPTETLTLTCTVSGIDLSHDDISWVRQAPGKGLEWVGIISYAGSTYYASWAKGRLTISKDTSKNQVVLTMTNMDPVDTATYYCARGVPAYSHGGDLWGQGTLVTVSSASTKGPSVFPLAPSSKSTSGGTAALGCLVKDYFPEPVTVSWNSGALTSGVHTFPAVLQSSGLYSLSSVVTVPSSSLGTQTYICNVNHKPSNTKVDKKVEPKSCDKTHTCPPCPFPELLTGPSVFLFPPKPKDTLMISRTPEVTCVVVDVSDEDPEVKFNWYVDGVEVHNAKTKPREEQYNSTYRVVSVLTVLHQDWLNGKEYKCKVSNKALPKPIEKTISKAKGQPREPQVYTLPPSREEMTKNQVSLTCLVKGFYPSDIAVEWESNGQPENNYKTTPPVLDSDGSFFLYSKLTVDKSRWQQGNVFSCSVMHEALHNHYTQKSLSLSP
light: DIVMTQSPATLSLSPGERATLSCTSSQSVYHANWLSWFQQKPGQPPKLLIYWASTLAYGVPSRFSGSGSGTDFTLTISSLQPEDAATYYCAGGYGGGRYAFGQGTKVEIKRTVAAPSVFIFPPSDEQLKSGTASVVCLLNNFYPREAKVQWKVDNALQSGNSQESVTEQDSKDSTYSLSSTLTLSKADYEKHKVYACEVTHQGLSSPVTKSFNRGEC
notes: copies: 2 + 2
B2: M103205H795-MY467/M103202L889-SK1 (antibody, human IgG1, kappa)
heavy: B1 heavy with F233M
light: B1 light
notes: copies: 2 + 2
B3: M103205H795-MY473/M103202L889-SK1 (antibody, human IgG1, kappa)
heavy: B1 heavy with F233T
light: B1 light
notes: copies: 2 + 2
B4: M103205H795-MY465/M103202L889-SK1 (antibody, human IgG1, kappa)
heavy: B1 heavy with F233K
light: B1 light
notes: copies: 2 + 2
B5: M103205H795-MY472/M103202L889-SK1 (antibody, human IgG1, kappa)
heavy: B1 heavy with F233S
light: B1 light
notes: copies: 2 + 2
B6: M103205H795-MY470/M103202L889-SK1 (antibody, human IgG1, kappa)
heavy: B1 heavy with F233Q
light: B1 light
notes: copies: 2 + 2
B7: M103205H795-MY462/M103202L889-SK1 (antibody, human IgG1, kappa)
heavy: B1 heavy with F233G
light: B1 light
notes: copies: 2 + 2
B8: M103205H795-MY464/M103202L889-SK1 (antibody, human IgG1, kappa)
heavy: B1 heavy with F233I
light: B1 light
notes: copies: 2 + 2
B9: M103205H795-MY469/M103202L889-SK1 (antibody, human IgG1, kappa)
heavy: B1 heavy with F233P
light: B1 light
notes: copies: 2 + 2
B10: M103205H795-MY468/M103202L889-SK1 (antibody, human IgG1, kappa)
heavy: B1 heavy with F233N
light: B1 light
notes: copies: 2 + 2
B11: M103205H795-MY474/M103202L889-SK1 (antibody, human IgG1, kappa)
heavy: B1 heavy with F233V
light: B1 light
notes: copies: 2 + 2
B12: M103205H795-MY466/M103202L889-SK1 (antibody, human IgG1, kappa)
heavy: B1 heavy with F233L
light: B1 light
notes: copies: 2 + 2
B13: M103205H795-MY471/M103202L889-SK1 (antibody, human IgG1, kappa)
heavy: B1 heavy with F233R
light: B1 light
notes: copies: 2 + 2
B14: M103205H795-MY463/M103202L889-SK1 (antibody, human IgG1, kappa)
heavy: B1 heavy with F233H
light: B1 light
notes: copies: 2 + 2

Molecular target: T1, human FcγRIIaH extracellular domain, …
Assay: SPR (BIACORE), captured antibody, FcgR as analyte

Kd [nM] | Binder
130 | B1
180 | B2
220 | B3
250 | B4
250 | B5
220 | B6
240 | B7
170 | B8
200 | B9
280 | B10
170 | B11
170 | B12
230 | B13
220 | B14

Molecular target: T2, cynomolgus monkey FcγRIIa1 …
Assay: SPR (BIACORE), captured antibody, FcgR as analyte

Kd [nM] | Binder
1300 | B1
1900 | B2
1600 | B3
2000 | B4
2400 | B5
2200 | B6
1900 | B7
1900 | B8
2200 | B9
2800 | B10
2000 | B11
1900 | B12
2600 | B13
2100 | B14

Molecular target: T3, cynomolgus monkey FcγRIIb extracellular …
Assay: SPR (BIACORE), captured antibody, FcgR as analyte

Kd [nM] | Binder
470 | B1
510 | B2
580 | B3
630 | B4
660 | B5
550 | B6
470 | B7
500 | B8
610 | B9
650 | B10
500 | B11
510 | B12
700 | B13
580 | B14

Molecular target: T9, human FcγRIIIaV extracellular domain, His-tagged (human, UniProt P08637 17-208)
T9 construct: also called FcgRIIIaV; not shown: C-terminal His-tag
T9 sequence (P08637 17-208 F176V): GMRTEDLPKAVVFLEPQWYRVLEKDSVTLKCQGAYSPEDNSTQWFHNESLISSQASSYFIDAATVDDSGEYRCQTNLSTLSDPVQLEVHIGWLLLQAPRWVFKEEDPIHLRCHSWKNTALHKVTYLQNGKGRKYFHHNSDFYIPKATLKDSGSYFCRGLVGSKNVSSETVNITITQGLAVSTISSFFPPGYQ
Assay: SPR (BIACORE), captured antibody, FcgR as analyte

Kd [nM] | Binder
5400 | B1
4800 | B2
5200 | B3
5500 | B4
6300 | B5
5100 | B6
5400 | B7
4400 | B8
5900 | B9
6800 | B10
4600 | B11
4300 | B12
5300 | B13
4300 | B14

Molecular target: T4, human FcγRIIaR extracellular domain, …
Assay: SPR (BIACORE), captured antibody, FcgR as analyte

Kd [nM] | Binder
340 | B1
360 | B2
490 | B3
600 | B4
490 | B5
470 | B6
490 | B7
260 | B8
430 | B9
470 | B10
340 | B11
280 | B12
470 | B13
520 | B14

Molecular target: T5, human FcγRIIb extracellular domain, …
Assay: SPR (BIACORE), captured antibody, FcgR as analyte

Kd [nM] | Binder
1700 | B1
2000 | B2
2200 | B3
2800 | B4
2500 | B5
2700 | B6
1900 | B7
1600 | B8
2400 | B9
2600 | B10
2000 | B11
1400 | B12
2800 | B13
2800 | B14

Molecular target: T6, cynomolgus monkey FcγRIIa3 …
Assay: SPR (BIACORE), captured antibody, FcgR as analyte

Kd [nM] | Binder
3300 | B1
4700 | B2
5500 | B3
5200 | B4
5100 | B5
4900 | B6
4200 | B7
3900 | B8
4900 | B9
5200 | B10
4800 | B11
4400 | B12
4500 | B13
4400 | B14

Molecular target: T7, cynomolgus monkey FcγRIIIaS …
Assay: SPR (BIACORE), captured antibody, FcgR as analyte

Kd [nM] | Binder
2100 | B1
1700 | B2
1700 | B3
1900 | B4
2500 | B5
1700 | B6
1800 | B7
1700 | B8
2200 | B9
2300 | B10
1600 | B11
1800 | B12
1800 | B13
1600 | B14

Molecular target: T8, cynomolgus monkey FcγRIIa2 …
Assay: SPR (BIACORE), captured antibody, FcgR as analyte

Kd [nM] | Binder
1800 | B1
1900 | B2
2600 | B3
2800 | B4
2100 | B5
1800 | B6
1600 | B7
1500 | B8
2100 | B9
2500 | B10
1800 | B11
1800 | B12
2100 | B13
1800 | B14
